Tested on: Escherichia coli TOP10
Assay: shrunken log2 fold change of peptide-encoding DNA abundance (4.5 h post-induction vs induction); higher = less antimicrobial activity (less host growth inhibition)
Details: time post-induction: 4.5 h; library: site-saturation at positions 5, 18, 19, 20
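Further: peptides expressed intracellularly from a pBAD plasmid library in pooled LB shake-flask culture, induced with 0.3% L-arabinose, DNA abundance read by NGS, three biological replicates, DESeq2 with apeglm shrinkage.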

Sequence	shrunken log2 fold change
RRIRFRPPRLPRPRPRPIWDPRP	-0.319
RRIRQRPPRLPRPRPRPFSEPRP	-0.477
RRIRNRPPRLPRPRPRPMNLPRP	0.0249
RRIRQRPPRLPRPRPRPDKNPRP	-0.635
RRIRRRPPRLPRPRPRPLETPRP	1.01
RRIRIRPPRLPRPRPRPRSLPRP	-0.036
RRIRTRPPRLPRPRPRPVMLPRP	-0.157
RRIRWRPPRLPRPRPRPTFGPRP	-0.0806
RRIRDRPPRLPRPRPRPSSQPRP	-0.0971
RRIRIRPPRLPRPRPRPYRWPRP	0.0522
RRIRCRPPRLPRPRPRPGYCPRP	-0.0918
RRIRQRPPRLPRPRPRPYLAPRP	-0.21
RRIRRRPPRLPRPRPRPKPTPRP	0.426
RRIRMRPPRLPRPRPRPFLDPRP	-0.198
RRIRARPPRLPRPRPRPQPEPRP	1.04
RRIRKRPPRLPRPRPRPRHNPRP	-0.241
RRIRVRPPRLPRPRPRPCECPRP	0.00846
RRIRTRPPRLPRPRPRPCNRPRP	-0.144
RRIRARPPRLPRPRPRPMQDPRP	0.188
RRIRFRPPRLPRPRPRPVNWPRP	0.253

Sequence	shrunken log2 fold change
RRIRVRPPRLPRPRPRPKISPRP	-0.234
RRIRKRPPRLPRPRPRPRGSPRP	0.319
RRIRKRPPRLPRPRPRPTNKPRP	0.14
RRIRWRPPRLPRPRPRPTNVPRP	-0.0165
RRIRARPPRLPRPRPRPQYMPRP	-0.112
RRIRVRPPRLPRPRPRPYALPRP	-0.848
RRIRQRPPRLPRPRPRPDVRPRP	-0.023
RRIRVRPPRLPRPRPRPNFRPRP	0.19
RRIRSRPPRLPRPRPRPNRPPRP	-0.0188
RRIRARPPRLPRPRPRPKPPPRP	0.959
RRIRFRPPRLPRPRPRPREVPRP	0.199
RRIRMRPPRLPRPRPRPHCQPRP	-0.0624
RRIRIRPPRLPRPRPRPEKSPRP	0.028
RRIRERPPRLPRPRPRPFHHPRP	0.0149
RRIRRRPPRLPRPRPRPDELPRP	0.614
RRIRKRPPRLPRPRPRPNIRPRP	-0.0456
RRIRGRPPRLPRPRPRPAGCPRP	0.973
RRIRSRPPRLPRPRPRPIFAPRP	0.192
RRIRHRPPRLPRPRPRPYATPRP	-0.172
RRIRCRPPRLPRPRPRPMILPRP	-0.352

Sequence	shrunken log2 fold change
RRIRWRPPRLPRPRPRPIGKPRP	-0.0958
RRIRCRPPRLPRPRPRPDNVPRP	-0.0772
RRIRHRPPRLPRPRPRPECIPRP	-0.00992
RRIRDRPPRLPRPRPRPTGMPRP	-0.00655
RRIRQRPPRLPRPRPRPSIQPRP	-0.13
RRIRWRPPRLPRPRPRPEVKPRP	0.21
RRIRERPPRLPRPRPRPSDCPRP	0.00151
RRIRLRPPRLPRPRPRPHELPRP	0.245
RRIRQRPPRLPRPRPRPFKKPRP	0.0942
RRIRARPPRLPRPRPRPRQRPRP	1.13
RRIRQRPPRLPRPRPRPARTPRP	0.167
RRIRDRPPRLPRPRPRPCDHPRP	-0.0216
RRIRFRPPRLPRPRPRPQTWPRP	-0.743
RRIRRRPPRLPRPRPRPVYAPRP	0.21
RRIRTRPPRLPRPRPRPFDPPRP	-0.112
RRIRERPPRLPRPRPRPAQAPRP	0.073
RRIRNRPPRLPRPRPRPLRSPRP	0.119
RRIRGRPPRLPRPRPRPSYPPRP	-0.215
RRIRHRPPRLPRPRPRPFMDPRP	-0.436
RRIRYRPPRLPRPRPRPEGKPRP	-0.0361
